PMC5278371

Substrate: O=[N+]([O-])c1ccc(O[C@@H]2O[C@H](CO)[C@@H](O)[C@H](O)[C@H]2O)cc1
Experiment: purified protein
Details: free enzyme, 2–16 mM p-NPG, 50 mM NaAc-HAc buffer, 40 °C

B1: β-glucosidase (BG), his-tagged (Coptotermes formosanus) (protein)
chain: DDVDNDTLVTFPDDFKLGAATASYQIEGGWDADGKGPNIWDTLTHERPHLVVDRSTGDVADDSYHLYLEDVRLLKDMGAEVYRFSISWARILPEGHDNNVNEAGIEYYNKLIDALLRNGIEPMVTMYHWDLPQKLQDLGGWPNRILAKYAENYARVLFSNFGDRVKQWLTFNEPLTFMDAYASDTGMAPSVDTPGIGDYLTAHTVILAHANIYRLYEREFREEQQGQVGIALNIHWCEPETGSPKDVEACERYQQFNLGIYAHPIFSENGDYPSVLKARVDANSASEGYTTSRLPKFTPEEVAFVNGTYDFLGLNFYTAVVGRDGVEGEPPSRYRDMGTITSQDPEWPESASSWLRVVPWGFRKELNWIANEYGNPPIFITENGFSDYGGVNDTNRVLYYTEHLKEMLKAIHIDGVNVIGYTAWSLIDNFEWLRGYTERFGIHAVNFIDPSRPRTPKESARVLTEIFKTRQIPERFRD
  Km: 4.2 ± 0.3 mM
  kcat: 58.8 s⁻¹
  kcat/Km: 14000 M⁻¹ s⁻¹
